Earlier results in paper PMC7850986.

Key:
[1] = target: IFNAR2 (Homo sapiens) (UniProt P48551)
[2] = target: IFNAR1 (Homo sapiens) (UniProt P17181)
Sequence of UniProt P17181 (P17181 28-436): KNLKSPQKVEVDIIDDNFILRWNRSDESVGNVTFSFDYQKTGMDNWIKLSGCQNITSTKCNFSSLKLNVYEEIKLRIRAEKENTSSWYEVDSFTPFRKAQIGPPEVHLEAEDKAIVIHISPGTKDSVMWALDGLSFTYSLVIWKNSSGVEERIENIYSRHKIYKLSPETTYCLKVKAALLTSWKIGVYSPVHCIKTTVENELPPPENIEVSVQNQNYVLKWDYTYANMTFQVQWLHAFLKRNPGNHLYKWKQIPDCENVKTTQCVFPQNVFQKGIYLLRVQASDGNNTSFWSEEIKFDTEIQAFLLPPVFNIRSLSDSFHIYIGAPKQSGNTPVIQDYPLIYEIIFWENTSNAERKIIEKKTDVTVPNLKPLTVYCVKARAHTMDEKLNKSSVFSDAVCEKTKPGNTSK

Sequence of UniProt P48551 (P48551 27-243): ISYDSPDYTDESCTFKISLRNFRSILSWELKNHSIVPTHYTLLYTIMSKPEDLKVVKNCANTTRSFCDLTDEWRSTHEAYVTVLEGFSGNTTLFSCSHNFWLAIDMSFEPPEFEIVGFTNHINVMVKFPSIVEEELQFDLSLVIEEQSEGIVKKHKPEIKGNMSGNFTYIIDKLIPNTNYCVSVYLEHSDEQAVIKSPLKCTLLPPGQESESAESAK

- Kd [1]: 0.0001 µM
- Kd [2]: 0.1 µM
Substance: IFNβ (from UniProt P01574)
